Measured values from patent publication US20150268247A1 (UNIVERSITY OF ROCHESTER, published 2015).
Where two headings read alike, the source gives them in different places.

B1: CBFβ alone (human core-binding factor β subunit isoform 2) (other)
chain: MGHHHHHHLEVLFQGPPRVVPDQRSKFENEEFFRKLSRECEIKYTGFRDRPHEERQARFQNACRDGRSEIAFVATGTNLSLQFFPASWQGEQRQTPSREYVDLEREAGKVYLKAPMILNGVCVIWKGWIDLQRLDGMGCLEFDEERAQQEDALAQQAFEEARRRTREFEDRDRSHREEMEVRVSQLLAVTGKKTTRP

Columns and labels:
[1] = molecular target: T1, VifC/EloB/C ternary complex (HIV-1 HXB2 Vif(95-192) / ElonginB 1-118 / ElonginC 17-112) (HIV-1 HXB2; human, UniProt P69720 95-192; Q15370 2-118; Q15369 18-112); experiment: ITC at 303.15 K in ITC Buffer A, CBFβ titrated to VifC/EloB/C
[2] = molecular target: T2, Vif/EloB/C/CBFβ quaternary complex (full-length HIV-1 HXB2 Vif(1-192) / ElonginB 1-118 / ElonginC 17 (HIV-1 HXB2; human, UniProt P69720 2-192; Q15370 2-118; P83940 18-112; Q13951 2-182)
[3] = molecular target: T1, VifC/EloB/C ternary complex (HIV-1 HXB2 …)
[4] = molecular target: T2, Vif/EloB/C/CBFβ quaternary complex …; remark: listed apart in the source
[5] = molecular target: T2, Vif/EloB/C/CBFβ quaternary complex …; remark: listed apart in the source
[6] = molecular target: T1, VifC/EloB/C ternary complex (HIV-1 HXB2 …); remark: listed apart in the source
[7] = molecular target: T1, VifC/EloB/C ternary complex (HIV-1 HXB2 …); remark: listed apart in the source
[8] = molecular target: T1, VifC/EloB/C ternary complex (HIV-1 HXB2 …); remark: listed apart in the source
[9] = molecular target: T1, VifC/EloB/C ternary complex (HIV-1 HXB2 …); remark: listed apart in the source
[10] = molecular target: T2, Vif/EloB/C/CBFβ quaternary complex …; remark: listed apart in the source
[11] = molecular target: T2, Vif/EloB/C/CBFβ quaternary complex …; remark: listed apart in the source
[12] = molecular target: T2, Vif/EloB/C/CBFβ quaternary complex …; remark: listed apart in the source
[13] = molecular target: T1, VifC/EloB/C ternary complex (HIV-1 HXB2 …); experiment: ITC at 30 °C, HEPES (ITC buffer A)
[14] = molecular target: T2, Vif/EloB/C/CBFβ quaternary complex …; experiment: ITC at 30 °C, HEPES (ITC buffer A)
[15] = molecular target: T1, VifC/EloB/C ternary complex (HIV-1 HXB2 …); experiment: ITC at 30 °C, phosphate (ITC buffer B)
[16] = molecular target: T2, Vif/EloB/C/CBFβ quaternary complex …; experiment: ITC at 30 °C, phosphate (ITC buffer B)
[17] = molecular target: T1, VifC/EloB/C ternary complex (HIV-1 HXB2 …); experiment: ITC at 30 °C, difference of ΔH between ITC buffers A and B
[18] = molecular target: T2, Vif/EloB/C/CBFβ quaternary complex …; experiment: as above
[19] = molecular target: B1; experiment: ITC at 303.15 K in ITC Buffer A, Cul5(N) titrated to CBFβ alone
[20] = molecular target: T1, VifC/EloB/C ternary complex (HIV-1 HXB2 …); experiment: ITC at 303 K, Cul5(N) in syringe, complex in cell, ITC buffer A
[21] = molecular target: T2, Vif/EloB/C/CBFβ quaternary complex …; experiment: as above

T1 sequence (P69720 95-192, tags left off, chain 1 of 3): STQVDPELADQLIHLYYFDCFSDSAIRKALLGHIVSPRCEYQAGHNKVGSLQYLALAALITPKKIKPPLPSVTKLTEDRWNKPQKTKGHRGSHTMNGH
T1 sequence (Q15370 2-118, tags left off, chain 2 of 3): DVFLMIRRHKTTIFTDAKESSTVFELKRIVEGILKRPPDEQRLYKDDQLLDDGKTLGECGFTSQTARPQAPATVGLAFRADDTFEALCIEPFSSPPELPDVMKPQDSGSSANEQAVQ
T1 sequence (Q15369 18-112, tags left off, chain 3 of 3): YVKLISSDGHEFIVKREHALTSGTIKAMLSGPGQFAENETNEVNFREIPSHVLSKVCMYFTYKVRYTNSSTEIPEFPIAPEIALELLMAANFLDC
T2 sequence (P69720 2-192, tags left off, chain 1 of 3): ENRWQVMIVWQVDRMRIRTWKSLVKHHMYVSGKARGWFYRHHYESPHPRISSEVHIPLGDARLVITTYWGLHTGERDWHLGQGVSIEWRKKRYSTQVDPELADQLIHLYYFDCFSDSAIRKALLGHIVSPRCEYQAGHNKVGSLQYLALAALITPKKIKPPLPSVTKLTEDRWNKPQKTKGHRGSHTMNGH
T2 sequence (Q15370 2-118, tags left off, chain 2 of 3): as the sequence (Q15370 2-118, tags left off, chain 2 of 3) above
T2 sequence (P83940 18-112, tags left off, chain 3 of 3): as the sequence (Q15369 18-112, tags left off, chain 3 of 3) above

B1
binding result [1]: no binding

B2: Cul5(N), human Cullin5 residues 2-384 with V341R and L345D mutations (post 3C cleavage) (other)
chain: GPMHMGGSTSNLLKNKGSLQFEDKWDFMRPIVLKLLRQESVTKQQWFDLFSDVHAVCLWDDKGPAKIHQALKEDILEFIKQAQARVLSHQDDTALLKAYIVEWRKFFTQCDILPKPFCQLEITLMGKQGSNKKSNVEDSIVRKLMLDTWNESIFSNIKNRLQDSAMKLVHAERLGEAFDSQLVIGVRESYVNLCSNPEDKLQIYRDNFEKAYLDSTERFYRTQAPSYLQQNGVQNYMKYADAKLKEEEKRALRYLETRRECNSVEALMECCVNALVTSFKETILAECQGMIKRNETEKLHLMFSLMDKVPNGIEPMLKDLEEHIISAGLADMVAAAETITTDSEKYREQLDTLFNRFSKLVKEAFQDDPRFLTARDKAYKAVVNDATIFK
notes: also called Cul5(2-384)
Kd [2]: 5 nM
N [3]: 1.03
ΔH [3]: -5250
ΔS [3]: 12.4
N [4]: 1.01
ΔH [4]: -8350
ΔS [4]: 11.2
N [5]: 1.01
ΔH [5]: -8350
ΔS [5]: 11.2
N [6]: 1.03
ΔH [6]: -5250
ΔS [6]: 12.4
N [7]: 0.887
ΔH [7]: -2250
ΔS [7]: 22.9
N [8]: 0.952
ΔH [8]: -3750
ΔS [8]: 17.4
N [9]: 0.948
ΔH [9]: -6430
ΔS [9]: 7.96
ΔH [10]: -3970
ΔS [10]: 21.7
N [11]: 0.943
ΔH [11]: -6310
ΔS [11]: 23
N [12]: 1
ΔH [12]: -10100
ΔS [12]: 4.56
ΔH [13]: -5.2 kcal/mol
ΔH [14]: -9.2 kcal/mol
ΔH [15]: -4.4 kcal/mol
ΔH [16]: -7.5 kcal/mol
ΔΔH (HEPES against phosphate buffer) [17]: 0.8 kcal/mol
ΔΔH (HEPES against phosphate buffer) [18]: 1.7 kcal/mol
binding result [19]: no binding
-TΔS [20]: -3.8 kcal/mol
Kd [20]: 327 nM
ΔG [20]: -9 kcal/mol
ΔH [20]: -5.2 kcal/mol
-TΔS [21]: -2.8 kcal/mol
ΔG [21]: -11.5 kcal/mol
ΔH [21]: -8.8 kcal/mol
